The source of these data is publication PMC11161758 (Proceedings of the National Academy of Sciences of the …, 2024).

For orientation: stoichiometry N means a count of units in the complex or per binding partner.

The target of the experiment is T1, N-terminal FLAG tag-p22phox (human, UniProt P13498 1-195).
T1 sequence: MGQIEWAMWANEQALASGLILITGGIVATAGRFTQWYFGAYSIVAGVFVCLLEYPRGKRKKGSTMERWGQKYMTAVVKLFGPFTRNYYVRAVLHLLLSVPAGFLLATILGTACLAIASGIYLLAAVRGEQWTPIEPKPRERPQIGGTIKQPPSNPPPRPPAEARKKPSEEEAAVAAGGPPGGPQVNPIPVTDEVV
The experiment in a line: cryo-EM structure.

B1: NOX2 (gp91phox), catalytic subunit of phagocyte NADPH oxidase (enzyme)
chain: MGNWAVNEGLSIFVILVWLGLNVFLFVWYYRVYDIPPKFFYTRKLLGSALALARAPAACLNFNCMLILLPVCRNLLSFLRGSSACCSTRVRRQLDRNLTFHKMVAWMIALHSAIHTIAHLFNVEWCVNARVNNSDPYSVALSELGDRQNESYLNFARKRIKNPEGGLYLAVTLLAGITGVVITLCLILIITSSTKTIRRSYFEVFWYTHHLFVIFFIGLAIHGAERIVRGQTAESLAVHNITVCEQKISEWGKIKECPIPQFAGNPPMTWKWIVGPMFLYLCERLVRFWRSQQKVVITKVVTHPFKTIELQMKKKGFKMEVGQYIFVKCPKVSKLEWHPFTLTSAPEEDFFSIHIRIVGDWTEGLFNACGCDKQEFQDAWKLPKIAVDGPFGTASEDVFSYEVVMLVGAGIGVTPFASILKSVWYKYCNNATNLKLKKIYFYWLCRDTHAFEWFADLLQLLESQMQERNNAGFLSYNIYLTGWDESQANHFAVHHDEEKDVITGLKQKTLYGRPNWDNEFKTIASQHPNTRIGVFLCGPEALAETLSKQSISNSESGPRGVHFIFNKENF
modifications: N-glycan moieties at asparagines 132, 149 and 240; two hemes bound
As to B1, the “stoichiometry N” value amounted to 1.
